This data set concerns the molecule itself. The data set is described as follows: NMR solution structure; 13C,15N-labelled P2 C at 6 mg/ml in 10 mM Na-phosphate pH 7.0, 150 mM NaCl, 10 % D2O; 13C- and 15N-NOESY-HSQC, 150 ms mixing time, 310 K, 900 MHz; CYANA2.1; homodimer interface found with aid from the crystal structure 2XCJ.

This note sets out measurements from paper PMC4752584, “The C repressor of the P2 bacteriophage” (Journal of Biomolecular Nmr, 2015).

B1: C-repressor of bacteriophage P2 (natural protein)
chain: MSNTISEKIVLMRKSEYLSRQQLADLTGVPYGTLSYYESGRSTPPTDVMMNILQTPQFTKYTLWFMTNQIAPEFGQIAPALAHFGQNETTSPHSGQKTG
notes: C repressor of bacteriophage P2, a 99 amino acid protein; wildtype; signals of residues up to 99 are reported; Uniformly 13C,15N labelled for the structure (grown in M9 with 13C-glucose and 15N-NH4Cl); No tag is mentioned; also called P2 C; P2C; source: E. coli BL21(DE3) with plasmid pEE679, purified (DEAE flow-through, HiTrap Heparin, Superdex 200)
Regarding B1, the binding result is given as “binds”.
